Reference: patent US20230374132A1 (Innovent, published 2023)

Experiments:
[1] = target: T1, human CD3 E&D complex protein (Sino Biological Inc., CT026H0323H) (human, UniProt P07766 23-126; P04234 22-105); experiment: BLI, antibody on sensor
T1 construct: bought heterodimer; also called human CD3 protein (CT026H0323H)
Procedure: (§1) 100 μl SD buffer, various antibodies, human CD3 E&D complex protein (Sino Biological Inc., CT026H0323H), and cynomolgus monkey CD3 E&D complex protein (Sino Biological Inc., CT032-00323H) were added into 96-well black polystyrene semi-quantitative micro-well plate (Greiner, 675076) respectively. Fortebio Octet Red 96 was used for detection, and the sensor position was selected according to the sample position. The setting parameters of the instrument are as follows: operation steps: Baseline, Loading-1 nm, Baseline, Association and Dissociation; the operation time of each step depends on the speed of sample association and dissociation. The rotational speed is 1000 rpm and the temperature is 30° C. ForteBio Octet analysis software was used to analyze KD value.

[2] = target: T2, cynomolgus monkey CD3 E&D complex protein (Sino Biological Inc., CT032-00323H) (cynomolgus monkey, UniProt Q95LI5 22-117; Q95LI8 22-105); experiment: BLI, antibody on sensor
T2 construct: bought heterodimer
Procedure: as §1

T1 sequence (P07766 23-126, chain 1 of 2): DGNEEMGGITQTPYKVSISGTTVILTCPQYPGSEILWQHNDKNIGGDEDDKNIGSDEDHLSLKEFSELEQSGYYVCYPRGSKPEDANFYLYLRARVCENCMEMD
T1 sequence (P04234 22-105, chain 2 of 2): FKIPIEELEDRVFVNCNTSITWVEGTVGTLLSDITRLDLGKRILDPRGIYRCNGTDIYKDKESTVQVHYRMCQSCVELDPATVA
T2 sequence (Q95LI5 22-117, chain 1 of 2): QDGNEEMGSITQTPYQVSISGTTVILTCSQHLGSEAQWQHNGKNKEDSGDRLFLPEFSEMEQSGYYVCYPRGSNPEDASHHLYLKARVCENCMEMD
T2 sequence (Q95LI8 22-105, chain 2 of 2): as the sequence (P04234 22-105, chain 2 of 2) above, with I5V, N15K, I20V, S32T, D33N, I34N, T64A, S74N, V83L counted along it

Binder	Kd [1] [pM]	koff [1] [s⁻¹]	kon [1] [M⁻¹ s⁻¹]	Kd [2] [pM]	koff [2] [s⁻¹]	kon [2] [M⁻¹ s⁻¹]	binding result [1]	binding result [2]
hzsp34.18 (antibody, human IgG1, lambda, L234A L235A, V domains shown, IgG1 L234A L235A, lambda) VH: EVQLVESGGGLVQPGGSLKLSCAASGFTFNTYAMNWVRQASGKGLEWVGRIRSKYNNYATYYADSVKDRFTISRDDSKSTLYLQMNSLKTEDTAVYYCARHGNFGNSYVSWFAYWGQGTTVTVSS VL: QAVVTQEPSLTVSPGGTVTLTCRSSTGAVTTSNYANWVQQKPGQAPRGLIGGTNKRAPGVPARFSGSLLGGKAALTLLGAQPEDEAEYYCALWYSNLWVFGQGTKLTVLG	629	0.00208	3.31e+06	670	0.00088	1.31e+06		
hzsp34.19 (antibody, human IgG1, lambda, L234A L235A, V domains shown, IgG1 L234A L235A, lambda) VH: EVQLVESGGGLVQPGGSLKLSCAASGFTFNTYAMNWVRQASGKGLEWVGRIRSKYNNYATYYADSVKDRFTISRDDSKSTLYLQMNSLKTEDTAVYYCARHGNFGQSYVSWFAYWGQGTTVTVSS VL: QAVVTQEPSLTVSPGGTVTLTCRSSTGAVTTSNYANWVQQKPGQAPRGLIGGTNKRAPGVPARFSGSLLGGKAALTLLGAQPEDEAEYYCALWYSNLWVFGQGTKLTVLG	613	0.00233	3.8e+06	602	0.00099	1.64e+06		
hzsp34.20 (antibody, human IgG1, lambda, L234A L235A, V domains shown, IgG1 L234A L235A, lambda) VH: EVQLVESGGGLVQPGGSLKLSCAASGFTFNTYAMNWVRQASGKGLEWVARIRSKYNNYATYYADSVKDRFTISRDDSKSTLYLQMNSLKTEDTAVYYCARHGNFGQSYVSWFAYWGQGTTVTVSS VL: QAVVTQEPSLTVSPGGTVTLTCRSSTGAVTTSNYANWVQQKPGQAPRGLIGGTNKRAPGVPARFSGSLLGGKAALTLLGAQPEDEAEYYCALWYSNLWVFGQGTKLTVLG	847	0.00275	3.25e+06	756	0.0011	1.46e+06		
hzsp34.22 (antibody, human IgG1, lambda, L234A L235A, V domains shown, IgG1 L234A L235A, lambda) VH: EVQLVESGGGLVQPGGSLKLSCAASGFTFNTYAMNWVRQASGKGLEWVGRIRSKYNNYATYYADSVKDRFTISRDDSKNTLYLQMNSLKTEDTAVYYCARHGNFGNSYVSWFAYWGQGTTVTVSS VL: QAVVTQEPSLTVSPGGTVTLTCRSSTGAVTTSNYANWVQQKPGQAPRGLIGGTNKRAPGVPARFSGSLLGDKAALTLLGAQPEDEAEYYCALWYSNLWVFGQGTKLTVLG	605	0.00214	3.54e+06	584	0.000886	1.52e+06		
hzsp34.23 (antibody, human IgG1, lambda, L234A L235A, V domains shown, IgG1 L234A L235A, lambda) VH: EVQLVESGGGLVQPGGSLKLSCAASGFTFNTYAMNWVRQASGKGLEWVGRIRSKYNNYATYYADSVKDRFTISRDDSKSTLYLQMNSLKTEDTAVYYCARHGNFGNSYVSWFAYWGQGTTVTVSS VL: QAVVTQEPSLTVSPGGTVTLTCRSSTGAVTTSNYANWVQQKPGQAPRGLIGGTNKRAPGVPARFSGSLLGDKAALTLLGAQPEDEAEYYCALWYSNLWVFGQGTKLTVLG	554	0.00198	3.57e+06	604	0.000791	1.31e+06		
hzsp34.25 (antibody, human IgG1, lambda, L234A L235A, V domains shown, IgG1 L234A L235A, lambda) VH: EVQLVESGGGLVQPGGSLKLSCAASGFTFNTYAMNWVRQASGKGLEWVARIRSKYNNYATYYADSVKDRFTISRDDSKSTLYLQMNSLKTEDTAVYYCARHGNFGQSYVSWFAYWGQGTTVTVSS VL: QAVVTQEPSLTVSPGGTVTLTCRSSTGAVTTSNYANWVQQKPGQAPRGLIGGTNKRAPGVPARFSGSLLGDKAALTLLGAQPEDEAEYYCALWYSNLWVFGQGTKLTVLG	1160	0.00273	2.35e+06	857	0.000913	1.07e+06		
hzsp34.27 (antibody, human IgG1, kappa, L234A L235A, V domains shown, IgG1 L234A L235A, kappa) VH: EVQLVESGGGLVQPGGSLKLSCAASGFTFNTYAMNWVRQASGKGLEWVGRIRSKYNNYATYYADSVKDRFTISRDDSKNTLYLQMNSLKTEDTAVYYCARHGNFGNSYVSWFAYWGQGTTVTVSS VL: EIVMTQSPATLSVSPGERATLSCRSSTGAVTTSNYANWYQQKPGQAPRLLIYGTNKRAPGIPARFSGSGSGTEFTLTISSLQSEDFAVYYCALWYSNLWVFGQGTKLTVLR							no binding	no binding
hzsp34.29 (antibody, human IgG1, kappa, L234A L235A, V domains shown, IgG1 L234A L235A, kappa) VH: EVQLVESGGGLVQPGGSLKLSCAASGFTFNTYAMNWVRQASGKGLEWVGRIRSKYNNYATYYADSVKDRFTISRDDSKSTLYLQMNSLKTEDTAVYYCARHGNFGQSYVSWFAYWGQGTTVTVSS VL: EIVMTQSPATLSVSPGERATLSCRSSTGAVTTSNYANWYQQKPGQAPRLLIYGTNKRAPGIPARFSGSGSGTEFTLTISSLQSEDFAVYYCALWYSNLWVFGQGTKLTVLR							no binding	no binding
hzsp34.30 (antibody, human IgG1, kappa, L234A L235A, V domains shown, IgG1 L234A L235A, kappa) VH: EVQLVESGGGLVQPGGSLKLSCAASGFTFNTYAMNWVRQASGKGLEWVARIRSKYNNYATYYADSVKDRFTISRDDSKSTLYLQMNSLKTEDTAVYYCARHGNFGQSYVSWFAYWGQGTTVTVSS VL: EIVMTQSPATLSVSPGERATLSCRSSTGAVTTSNYANWYQQKPGQAPRLLIYGTNKRAPGIPARFSGSGSGTEFTLTISSLQSEDFAVYYCALWYSNLWVFGQGTKLTVLR							no binding	no binding
hzsp34.32 (antibody, human IgG1, kappa, L234A L235A, V domains shown, IgG1 L234A L235A, kappa) VH: EVQLVESGGGLVQPGGSLKLSCAASGFTFNTYAMNWVRQASGKGLEWVGRIRSKYNNYATYYADSVKDRFTISRDDSKNTLYLQMNSLKTEDTAVYYCARHGNFGNSYVSWFAYWGQGTTVTVSS VL: EIVMTQSPATLSVSPGERATLSCRSSTGAVTTSNYANWVQQKPGQAPRLLIGGTNKRAPGVPARFSGSGSGTEFTLTISSLQSEDFAVYYCALWYSNLWVFGQGTKLTVLR							no binding	no binding
hzsp34.34 (antibody, human IgG1, kappa, L234A L235A, V domains shown, IgG1 L234A L235A, kappa) VH: EVQLVESGGGLVQPGGSLKLSCAASGFTFNTYAMNWVRQASGKGLEWVGRIRSKYNNYATYYADSVKDRFTISRDDSKSTLYLQMNSLKTEDTAVYYCARHGNFGQSYVSWFAYWGQGTTVTVSS VL: EIVMTQSPATLSVSPGERATLSCRSSTGAVTTSNYANWVQQKPGQAPRLLIGGTNKRAPGVPARFSGSGSGTEFTLTISSLQSEDFAVYYCALWYSNLWVFGQGTKLTVLR							no binding	no binding
hzsp34.35 (antibody, human IgG1, kappa, L234A L235A, V domains shown, IgG1 L234A L235A, kappa) VH: EVQLVESGGGLVQPGGSLKLSCAASGFTFNTYAMNWVRQASGKGLEWVARIRSKYNNYATYYADSVKDRFTISRDDSKSTLYLQMNSLKTEDTAVYYCARHGNFGQSYVSWFAYWGQGTTVTVSS VL: EIVMTQSPATLSVSPGERATLSCRSSTGAVTTSNYANWVQQKPGQAPRLLIGGTNKRAPGVPARFSGSGSGTEFTLTISSLQSEDFAVYYCALWYSNLWVFGQGTKLTVLR							no binding	no binding
hzsp34.37 (antibody, human IgG1, kappa, L234A L235A, V domains shown, IgG1 L234A L235A, kappa) VH: EVQLVESGGGLVQPGGSLKLSCAASGFTFNTYAMNWVRQASGKGLEWVGRIRSKYNNYATYYADSVKDRFTISRDDSKNTLYLQMNSLKTEDTAVYYCARHGNFGNSYVSWFAYWGQGTTVTVSS VL: EIVMTQSPATLSVSPGERATLSCRSSTGAVTTSNYANWVQQKPGQAPRGLIGGTNKRAPGVPARFSGSGSGTEFTLTISSLQSEDFAVYYCALWYSNLWVFGQGTKLTVLR	9160	0.00399	436000	6240	0.002	321000		
